Assays:
TRAPPC11 = target: T1, TRAPPC11 (human, UniProt Q7Z392 1-1133, limits assumed); experiment: IP/MS, LZTR1 wild type-FLAG, U87
T1 sequence (looked up): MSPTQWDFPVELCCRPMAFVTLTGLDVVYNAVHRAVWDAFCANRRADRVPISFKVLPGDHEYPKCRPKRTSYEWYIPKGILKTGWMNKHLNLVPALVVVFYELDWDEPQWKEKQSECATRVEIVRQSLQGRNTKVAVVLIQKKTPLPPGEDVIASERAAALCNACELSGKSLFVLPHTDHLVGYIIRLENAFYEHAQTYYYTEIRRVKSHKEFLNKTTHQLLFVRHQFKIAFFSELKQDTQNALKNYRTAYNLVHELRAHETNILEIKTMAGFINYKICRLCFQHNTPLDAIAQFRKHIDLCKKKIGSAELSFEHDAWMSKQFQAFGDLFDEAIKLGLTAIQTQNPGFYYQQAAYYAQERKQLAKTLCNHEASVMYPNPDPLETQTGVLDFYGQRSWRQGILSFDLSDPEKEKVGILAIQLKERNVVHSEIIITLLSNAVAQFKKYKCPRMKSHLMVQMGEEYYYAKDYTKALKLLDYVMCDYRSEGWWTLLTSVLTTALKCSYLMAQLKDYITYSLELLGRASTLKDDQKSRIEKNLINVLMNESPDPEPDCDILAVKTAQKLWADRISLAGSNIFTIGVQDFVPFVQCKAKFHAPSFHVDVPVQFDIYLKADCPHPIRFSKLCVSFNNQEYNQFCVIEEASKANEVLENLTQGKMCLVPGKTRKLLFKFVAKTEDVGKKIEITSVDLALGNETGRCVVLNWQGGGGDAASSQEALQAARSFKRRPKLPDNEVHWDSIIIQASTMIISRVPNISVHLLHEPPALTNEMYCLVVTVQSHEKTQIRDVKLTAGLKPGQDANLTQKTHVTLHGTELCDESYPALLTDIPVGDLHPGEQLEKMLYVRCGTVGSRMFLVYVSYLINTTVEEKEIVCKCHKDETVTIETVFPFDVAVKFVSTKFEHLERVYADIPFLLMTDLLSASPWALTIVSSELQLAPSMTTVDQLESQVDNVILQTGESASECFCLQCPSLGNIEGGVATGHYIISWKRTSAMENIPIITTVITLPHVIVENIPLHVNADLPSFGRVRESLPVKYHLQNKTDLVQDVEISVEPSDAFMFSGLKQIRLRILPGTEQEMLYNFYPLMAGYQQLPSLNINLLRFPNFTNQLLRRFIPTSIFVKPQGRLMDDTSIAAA
Procedure, shortened: (§1)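 Gel slices were reduced with 5 mM DTT, alkylated with 11 mM IAA and digested overnight at 37° C. with trypsin. Peptides were analysed on an Orbitrap Fusion Tribrid by LC-MS/MS.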

RAPH1 = target: T2, RAPH1 (human, UniProt Q70E73 1-1250, limits assumed); experiment: IP/MS, LZTR1 wild type-FLAG, U87
T2 sequence (looked up): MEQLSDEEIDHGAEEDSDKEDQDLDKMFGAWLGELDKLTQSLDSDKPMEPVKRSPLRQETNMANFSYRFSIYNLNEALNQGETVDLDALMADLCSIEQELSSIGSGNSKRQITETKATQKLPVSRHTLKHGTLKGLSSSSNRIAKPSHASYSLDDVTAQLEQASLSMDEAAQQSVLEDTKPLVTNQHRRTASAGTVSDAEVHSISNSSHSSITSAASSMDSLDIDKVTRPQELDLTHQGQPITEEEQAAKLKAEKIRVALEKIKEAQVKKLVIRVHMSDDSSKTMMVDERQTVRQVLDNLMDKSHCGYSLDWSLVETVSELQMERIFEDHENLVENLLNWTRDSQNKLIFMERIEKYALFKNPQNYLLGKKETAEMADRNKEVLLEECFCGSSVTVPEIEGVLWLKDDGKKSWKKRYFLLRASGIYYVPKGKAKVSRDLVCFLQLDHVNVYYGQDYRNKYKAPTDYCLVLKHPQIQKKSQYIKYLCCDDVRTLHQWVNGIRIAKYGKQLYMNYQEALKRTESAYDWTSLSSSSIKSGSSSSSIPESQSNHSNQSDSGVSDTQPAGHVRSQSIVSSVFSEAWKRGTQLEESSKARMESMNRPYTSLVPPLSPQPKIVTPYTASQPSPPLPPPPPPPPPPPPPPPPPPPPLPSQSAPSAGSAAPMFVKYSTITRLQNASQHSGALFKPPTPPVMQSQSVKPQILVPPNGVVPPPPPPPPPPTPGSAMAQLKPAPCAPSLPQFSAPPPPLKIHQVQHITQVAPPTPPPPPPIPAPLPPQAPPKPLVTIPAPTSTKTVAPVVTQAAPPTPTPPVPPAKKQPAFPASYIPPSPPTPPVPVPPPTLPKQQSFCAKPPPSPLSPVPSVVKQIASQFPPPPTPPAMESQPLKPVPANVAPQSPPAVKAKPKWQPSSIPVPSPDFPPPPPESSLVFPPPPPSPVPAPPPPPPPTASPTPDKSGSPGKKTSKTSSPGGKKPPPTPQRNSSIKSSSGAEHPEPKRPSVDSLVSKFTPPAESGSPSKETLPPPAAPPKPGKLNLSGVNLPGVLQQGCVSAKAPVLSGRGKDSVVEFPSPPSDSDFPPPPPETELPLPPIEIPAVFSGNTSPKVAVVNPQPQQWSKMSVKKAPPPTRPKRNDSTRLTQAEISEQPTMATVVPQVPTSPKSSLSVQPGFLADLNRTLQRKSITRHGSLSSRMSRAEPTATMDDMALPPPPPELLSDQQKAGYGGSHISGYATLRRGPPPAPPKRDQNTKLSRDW
Procedure, shortened: as §1

binding result (TRAPPC11): binds
binding result (RAPH1): binds
B1: LZTR1-FLAG (other, human, UniProt Q8N653 1-840, looked up)
chain: MAGPGSTGGQIGAAALAGGARSKVAPSVDFDHSCSDSVEYLTLNFGPFETVHRWRRLPPCDEFVGARRSKHTVVAYKDAIYVFGGDNGKTMLNDLLRFDVKDCSWCRAFTTGTPPAPRYHHSAVVYGSSMFVFGGYTGDIYSNSNLKNKNDLFEYKFATGQWTEWKIEGRLPVARSAHGATVYSDKLWIFAGYDGNARLNDMWTIGLQDRELTCWEEVAQSGEIPPSCCNFPVAVCRDKMFVFSGQSGAKITNNLFQFEFKDKTWTRIPTEHLLRGSPPPPQRRYGHTMVAFDRHLYVFGGAADNTLPNELHCYDVDFQTWEVVQPSSDSEVGGAEVPERACASEEVPTLTYEERVGFKKSRDVFGLDFGTTSAKQPTQPASELPSGRLFHAAAVISDAMYIFGGTVDNNIRSGEMYRFQFSCYPKCTLHEDYGRLWESRQFCDVEFVLGEKEECVQGHVAIVTARSRWLRRKITQARERLAQKLEQEAAPVPREAPGVAAGGARPPLLHVAIREAEARPFEVLMQFLYTDKIKYPRKGHVEDVLLIMDVYKLALSFQLCRLEQLCRQYIEASVDLQNVLVVCESAARLQLSQLKEHCLNFVVKESHFNQVIMMKEFERLSSPLIVEIVRRKQQPPPRTPLDQPVDIGTSLIQDMKAYLEGAGAEFCDITLLLDGHPRPAHKAILAARSSYFEAMFRSFMPEDGQVNISIGEMVPSRQAFESMLRYIYYGEVNMPPEDSLYLFAAPYYYGFYNNRLQAYCKQNLEMNVTVQNVLQILEAADKTQALDMKRHCLHIIVHQFTKVSKLPTLRSLSQQLLLDIIDSLASHISDKQCAELGADI
notes: Expressed in HEK 293T, HeLa or U87 cells; used as cell lysate; also called LZTR1 wild type-FLAG; LZTR1 WT; not shown: FLAG tag at the C-terminus

Reference: patent publication US20250262210A1 (TRUSTEES OF COLUMBIA UNIVERSITY IN THE CITY OF NEW YORK, published 2025)
